Laboratory results from publication PMC10342849, “Feruloyl Esterase (LaFae) from Lactobacillus acidophilus: Structural Insights and Functional Characterization for Application in Ferulic Acid Production” (International Journal of Molecular Sciences, 2023).

Experiments:
[1] = molecular target: Feruloyl esterase (LaFae) from Lactobacillus acidophilus (Lactobacillus acidophilus); assay: SEC; gel filtration on HiPrep S-200R column in 20 mM Tris-HCl (pH 8.0), molecular weight from a standard curve of protein standards
[2] = molecular target: Feruloyl esterase (LaFae) from Lactobacillus acidophilus (Lactobacillus acidophilus); assay: AUC; 20 mM Tris-HCl (pH 8.0), ProteomeLab XL-A, sedimentation profile at 280 nm analysed with SEDFIT
purified protein = substrate: CCCC(=O)Oc1ccc([N+](=O)[O-])cc1; assay: purified protein; type: biochemical, Lactobacillus acidophilus; settings: hydrolysis; His6-tagged enzyme

Feruloyl esterase (LaFae) from Lactobacillus acidophilus (enzyme)
stoichiometry N [1]: 2
percent of the sample in the dimer peak [2]: 95.3%
stoichiometry N [2]: 2

B1: LaFae (Lactobacillus acidophilus NCFM) (protein)
chain: MSRITIERDGLTLVGDREEPFGEIYDMAILMHGFTANRNTPLLRQIADNLRDENVASVRFDFNGHGESDGAFEDMTVCNEIADAQKILEYVRTDPHVRNIFLVGHSQGGVVASMLAGLYPDIVKKVVLLAPAAQLKDDALNGDTQGATYNPEHIPAAIPFHGKKLGGFYLRTAQVLPIYEIAKHYTNPVSIIVGSNDQVVAPKYSKKYDEVYENSELHMVPDADHSFTGQYKDSAVDLTAEFLKPLF
notes: His6-tagged, pET-21a (BamHI/XhoI), E. coli BL21(DE3); dimer in solution; catalytic triad Ser106, Asp197, His225
Km (purified protein): 1160 µM
